*1 amine or outer side, *2 acyl side, *3 side chain or, on linkers, in order; H or OH if unused. Side-chain parts run from the residue outwards. The star is where a group is joined. C18 diacid = O=C(O)CCCCCCCCCCCCCCCCC(=O)*; γGlu = O=C(O)[C@H](CCC(=O)[*:2])N[*:1]; Isovaleryl = CC(C)CC(=O)*; Ahx = NCCCCCC(=O)O

For orientation: Ki means a measure of affinity in units of concentration, obtained from inhibition or displacement. Low values mean tighter binding, high ones weaker binding.

Sequences and labels used below:
T1: human NPY2 receptor (human, UniProt P49146 1-381)
T1 construct: whole, on cells; also called hNPY2-R; hNPY2R
T1 sequence (looked up): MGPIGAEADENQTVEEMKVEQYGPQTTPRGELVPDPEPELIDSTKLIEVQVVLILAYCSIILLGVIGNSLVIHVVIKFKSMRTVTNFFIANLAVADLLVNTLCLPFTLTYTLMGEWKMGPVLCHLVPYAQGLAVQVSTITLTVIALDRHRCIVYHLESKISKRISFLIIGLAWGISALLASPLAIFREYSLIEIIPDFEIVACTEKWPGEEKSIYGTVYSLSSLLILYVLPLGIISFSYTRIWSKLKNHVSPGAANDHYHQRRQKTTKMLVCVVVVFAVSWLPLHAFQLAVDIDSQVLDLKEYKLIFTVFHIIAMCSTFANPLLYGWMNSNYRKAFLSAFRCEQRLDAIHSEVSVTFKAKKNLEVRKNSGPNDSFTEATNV

B1: Compound 87 (peptide)
peptide: Isovaleryl-APEK([Ahx-γGlu-C18 diacid])PEEDATPEELQRYYVPLRHYYNWLTRQRY-NH2
SMILES: CC(C)CC(=O)N[C@@H](C)C(=O)N1CCC[C@H]1C(=O)N[C@@H](CCC(=O)O)C(=O)N[C@@H](CCCCNC(=O)CCCCCNC(=O)CC[C@H](NC(=O)CCCCCCCCCCCCCCCCC(=O)O)C(=O)O)C(=O)N1CCC[C@H]1C(=O)N[C@@H](CCC(=O)O)C(=O)N[C@@H](CCC(=O)O)C(=O)N[C@@H](CC(=O)O)C(=O)N[C@@H](C)C(=O)N[C@H](C(=O)N1CCC[C@H]1C(=O)N[C@@H](CCC(=O)O)C(=O)N[C@@H](CCC(=O)O)C(=O)N[C@@H](CC(C)C)C(=O)N[C@@H](CCC(N)=O)C(=O)N[C@@H](CCCNC(=N)N)C(=O)N[C@@H](Cc1ccc(O)cc1)C(=O)N[C@@H](Cc1ccc(O)cc1)C(=O)N[C@H](C(=O)N1CCC[C@H]1C(=O)N[C@@H](CC(C)C)C(=O)N[C@@H](CCCNC(=N)N)C(=O)N[C@@H](Cc1c[nH]cn1)C(=O)N[C@@H](Cc1ccc(O)cc1)C(=O)N[C@@H](Cc1ccc(O)cc1)C(=O)N[C@@H](CC(N)=O)C(=O)N[C@@H](Cc1c[nH]c2ccccc12)C(=O)N[C@@H](CC(C)C)C(=O)N[C@H](C(=O)N[C@@H](CCCNC(=N)N)C(=O)N[C@@H](CCC(N)=O)C(=O)N[C@@H](CCCNC(=N)N)C(=O)N[C@@H](Cc1ccc(O)cc1)C(N)=O)[C@@H](C)O)C(C)C)[C@@H](C)O
B2: Compound 90 (peptide)
peptide: Isovaleryl-APEK([Ahx-γGlu-C18 diacid])PEEDATPEELQRYYVVLRHYYNWLTRQRY-NH2
SMILES: CC(C)CC(=O)N[C@@H](C)C(=O)N1CCC[C@H]1C(=O)N[C@@H](CCC(=O)O)C(=O)N[C@@H](CCCCNC(=O)CCCCCNC(=O)CC[C@H](NC(=O)CCCCCCCCCCCCCCCCC(=O)O)C(=O)O)C(=O)N1CCC[C@H]1C(=O)N[C@@H](CCC(=O)O)C(=O)N[C@@H](CCC(=O)O)C(=O)N[C@@H](CC(=O)O)C(=O)N[C@@H](C)C(=O)N[C@H](C(=O)N1CCC[C@H]1C(=O)N[C@@H](CCC(=O)O)C(=O)N[C@@H](CCC(=O)O)C(=O)N[C@@H](CC(C)C)C(=O)N[C@@H](CCC(N)=O)C(=O)N[C@@H](CCCNC(=N)N)C(=O)N[C@@H](Cc1ccc(O)cc1)C(=O)N[C@@H](Cc1ccc(O)cc1)C(=O)N[C@H](C(=O)N[C@H](C(=O)N[C@@H](CC(C)C)C(=O)N[C@@H](CCCNC(=N)N)C(=O)N[C@@H](Cc1c[nH]cn1)C(=O)N[C@@H](Cc1ccc(O)cc1)C(=O)N[C@@H](Cc1ccc(O)cc1)C(=O)N[C@@H](CC(N)=O)C(=O)N[C@@H](Cc1c[nH]c2ccccc12)C(=O)N[C@@H](CC(C)C)C(=O)N[C@H](C(=O)N[C@@H](CCCNC(=N)N)C(=O)N[C@@H](CCC(N)=O)C(=O)N[C@@H](CCCNC(=N)N)C(=O)N[C@@H](Cc1ccc(O)cc1)C(N)=O)[C@@H](C)O)C(C)C)C(C)C)[C@@H](C)O
B3: Compound 88 (peptide)
peptide: Isovaleryl-APEK([Ahx-γGlu-C18 diacid])PEEDATPEELQRQYVSLRHYYNWLTRQRY-NH2
SMILES: CC(C)CC(=O)N[C@@H](C)C(=O)N1CCC[C@H]1C(=O)N[C@@H](CCC(=O)O)C(=O)N[C@@H](CCCCNC(=O)CCCCCNC(=O)CC[C@H](NC(=O)CCCCCCCCCCCCCCCCC(=O)O)C(=O)O)C(=O)N1CCC[C@H]1C(=O)N[C@@H](CCC(=O)O)C(=O)N[C@@H](CCC(=O)O)C(=O)N[C@@H](CC(=O)O)C(=O)N[C@@H](C)C(=O)N[C@H](C(=O)N1CCC[C@H]1C(=O)N[C@@H](CCC(=O)O)C(=O)N[C@@H](CCC(=O)O)C(=O)N[C@@H](CC(C)C)C(=O)N[C@@H](CCC(N)=O)C(=O)N[C@@H](CCCNC(=N)N)C(=O)N[C@@H](CCC(N)=O)C(=O)N[C@@H](Cc1ccc(O)cc1)C(=O)N[C@H](C(=O)N[C@@H](CO)C(=O)N[C@@H](CC(C)C)C(=O)N[C@@H](CCCNC(=N)N)C(=O)N[C@@H](Cc1c[nH]cn1)C(=O)N[C@@H](Cc1ccc(O)cc1)C(=O)N[C@@H](Cc1ccc(O)cc1)C(=O)N[C@@H](CC(N)=O)C(=O)N[C@@H](Cc1c[nH]c2ccccc12)C(=O)N[C@@H](CC(C)C)C(=O)N[C@H](C(=O)N[C@@H](CCCNC(=N)N)C(=O)N[C@@H](CCC(N)=O)C(=O)N[C@@H](CCCNC(=N)N)C(=O)N[C@@H](Cc1ccc(O)cc1)C(N)=O)[C@@H](C)O)C(C)C)[C@@H](C)O
B4: Compound 93 (peptide)
peptide: Isovaleryl-APEK([Ahx-γGlu-C18 diacid])PEEDASPEEIQRYYVQLRHYYNWLTRQRY-NH2
SMILES: CC[C@H](C)[C@H](NC(=O)[C@H](CCC(=O)O)NC(=O)[C@H](CCC(=O)O)NC(=O)[C@@H]1CCCN1C(=O)[C@H](CO)NC(=O)[C@H](C)NC(=O)[C@H](CC(=O)O)NC(=O)[C@H](CCC(=O)O)NC(=O)[C@H](CCC(=O)O)NC(=O)[C@@H]1CCCN1C(=O)[C@H](CCCCNC(=O)CCCCCNC(=O)CC[C@H](NC(=O)CCCCCCCCCCCCCCCCC(=O)O)C(=O)O)NC(=O)[C@H](CCC(=O)O)NC(=O)[C@@H]1CCCN1C(=O)[C@H](C)NC(=O)CC(C)C)C(=O)N[C@@H](CCC(N)=O)C(=O)N[C@@H](CCCNC(=N)N)C(=O)N[C@@H](Cc1ccc(O)cc1)C(=O)N[C@@H](Cc1ccc(O)cc1)C(=O)N[C@H](C(=O)N[C@@H](CCC(N)=O)C(=O)N[C@@H](CC(C)C)C(=O)N[C@@H](CCCNC(=N)N)C(=O)N[C@@H](Cc1c[nH]cn1)C(=O)N[C@@H](Cc1ccc(O)cc1)C(=O)N[C@@H](Cc1ccc(O)cc1)C(=O)N[C@@H](CC(N)=O)C(=O)N[C@@H](Cc1c[nH]c2ccccc12)C(=O)N[C@@H](CC(C)C)C(=O)N[C@H](C(=O)N[C@@H](CCCNC(=N)N)C(=O)N[C@@H](CCC(N)=O)C(=O)N[C@@H](CCCNC(=N)N)C(=O)N[C@@H](Cc1ccc(O)cc1)C(N)=O)[C@@H](C)O)C(C)C
B5: Compound 94 (peptide)
peptide: Isovaleryl-APAK([Ahx-γGlu-C18 diacid])PEADASPEELQRYYVELRHYYNWLTRQRY-NH2
SMILES: CC(C)CC(=O)N[C@@H](C)C(=O)N1CCC[C@H]1C(=O)N[C@@H](C)C(=O)N[C@@H](CCCCNC(=O)CCCCCNC(=O)CC[C@H](NC(=O)CCCCCCCCCCCCCCCCC(=O)O)C(=O)O)C(=O)N1CCC[C@H]1C(=O)N[C@@H](CCC(=O)O)C(=O)N[C@@H](C)C(=O)N[C@@H](CC(=O)O)C(=O)N[C@@H](C)C(=O)N[C@@H](CO)C(=O)N1CCC[C@H]1C(=O)N[C@@H](CCC(=O)O)C(=O)N[C@@H](CCC(=O)O)C(=O)N[C@@H](CC(C)C)C(=O)N[C@@H](CCC(N)=O)C(=O)N[C@@H](CCCNC(=N)N)C(=O)N[C@@H](Cc1ccc(O)cc1)C(=O)N[C@@H](Cc1ccc(O)cc1)C(=O)N[C@H](C(=O)N[C@@H](CCC(=O)O)C(=O)N[C@@H](CC(C)C)C(=O)N[C@@H](CCCNC(=N)N)C(=O)N[C@@H](Cc1c[nH]cn1)C(=O)N[C@@H](Cc1ccc(O)cc1)C(=O)N[C@@H](Cc1ccc(O)cc1)C(=O)N[C@@H](CC(N)=O)C(=O)N[C@@H](Cc1c[nH]c2ccccc12)C(=O)N[C@@H](CC(C)C)C(=O)N[C@H](C(=O)N[C@@H](CCCNC(=N)N)C(=O)N[C@@H](CCC(N)=O)C(=O)N[C@@H](CCCNC(=N)N)C(=O)N[C@@H](Cc1ccc(O)cc1)C(N)=O)[C@@H](C)O)C(C)C

The assay concerns the target T1, human NPY2 receptor. Briefly: RLB: displacement of 125I-PYY(1-36) from hNPY2R membranes.
On to B1, for which the inhibitory constant (Ki) amounted to 22.4 nM. B2 had a Ki of 8.71 nM. Under B3 stands 16.3 nM; under B4, 1.71 nM. Under B5 stands 0.93 nM.

The values are drawn from patent US20260015399A1 (Boehringer Ingelheim, published 2026).
